Measurements published in PMC12559223, “Structural basis of apoptosis induction by the mitochondrial voltage-dependent anion channel” (Nature Communications, 2025).
Positions of bridges follow the written chain, without caps; N, C: chain ends. Non-standard residues stand in square brackets, D forms with d. Residues, ends and D or L forms follow the SMILES beside them. S5 = C=CCCC[C@](C)(N)C(=O)O

T1: human BclxLΔLT (BclxL without the flexible loop and the transmembrane helix), Q07817-1
T1 chain: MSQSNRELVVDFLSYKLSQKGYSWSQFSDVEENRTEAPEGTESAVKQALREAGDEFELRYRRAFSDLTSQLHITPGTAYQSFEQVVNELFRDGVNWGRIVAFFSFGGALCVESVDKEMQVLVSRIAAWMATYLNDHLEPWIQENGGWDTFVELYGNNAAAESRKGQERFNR


How the values were obtained:
BclxLΔLT = target: T2, BclxLΔLT (Homo sapiens, UniProt Q07817, DEL45-84); experiment: NMR-detected affinity measurement, alanine scanning of VDAC1-N peptides; assay type: binding; details: NMR CSP titration into 100 µM 2H,15N BclxLΔLT, 20 mM NaPi pH 7.0, 50 mM NaCl; one-site model; mean of individual NMR resonances as probes (n = 3)
T2 construct: BclxLΔLT (residues 1–44 and 85–213); inferred from Ni-NTA purification; made in house; host or cells: E. coli BL21 (DE3)
T2 sequence (Q07817 with tags, fused parts or gaps DEL45-84 limits assumed): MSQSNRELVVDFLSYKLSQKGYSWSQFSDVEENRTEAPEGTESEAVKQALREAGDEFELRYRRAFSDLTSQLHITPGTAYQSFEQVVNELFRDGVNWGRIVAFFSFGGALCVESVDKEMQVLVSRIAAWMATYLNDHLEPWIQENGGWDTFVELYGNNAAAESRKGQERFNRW
Excerpt: The resulting chemical shift perturbation was plotted against the peptide concentration to extract KD values for each peptide using a one-site binding model using OriginPro (OriginLab) for data fitting.

[1] = target: human BclxLΔLT (BclxL without the flexible loop and the transmembrane helix) (human) (UniProt Q07817); experiment: ITC; MicroCal PEAQ-ITC, 20 °C; BclxLΔLT in the cell (250 µM for the linear, 50 µM for the stapled peptide), peptide in the syringe (500 µM stapled); 10 mM NaPi pH 7.0, 50 mM NaCl, 0.5 mM EDTA, 1 mM DTT
[2] = target: human BclxLΔTM (soluble domain of BclxL, transmembrane helix deleted) (human) (UniProt Q07817)
Bak-BclxL complex = experiment: Liposome permeabilization (pore-forming) assay, cBid-activated Bak inhibited by BclxL; assay type: biochemical, human; details: increasing concentrations of peptide (10-100 µM); 50 nM BakΔTM, 40 nM cBid, 50 nM BclxLΔTM
[3] = target: T1, human BclxLΔLT (BclxL without the …); experiment: NMR-detected affinity measurements (alanine scanning); details: chain shown with the change;; parent: est. 0.2 mM; read off a plot
[4] = target: human BclxLΔLT (BclxL without the flexible loop and the transmembrane helix) (human) (UniProt Q07817); experiment: NMR titration; alanine scan: VDAC1-N peptides titrated into 100 µM 2H,15N-BclxLΔLT; 20 mM NaPi pH 7.0, 50 mM NaCl, 0.5 mM EDTA, 5 mM DTT; KD from chemical shift perturbations, one-site binding model
[5] = target: human BclxLΔLT (BclxL without the flexible loop and the transmembrane helix) (human, UniProt Q07817-1 1-212, flexible loop (residues 44–84) deleted); experiment: NMR
[6] = target: T3, human BclxLΔLT (BclxL without the flexible loop and the transmembrane helix) (human, UniProt Q07817-1 1-212, flexible loop (residues 44–84) deleted); experiment: crystal structure; single-chain BclxLΔLT-VDAC1-N construct, crystal from 1.6 M ammonium sulfate, 0.1 M bicine pH 9.0, 292 K; 1.95 Å; details: both partners purified
T3 construct: BclxL, human, residues 1-43 and 85-212 (flexible loop 44-84 and transmembrane helix deleted); the NMR methods say 1-44 and 85-213; Isotope-labelled for NMR; In the crystal it stood fused to VDAC1-N(1-26) on one chain; source: E. coli BL21 (DE3), purified (Ni-NTA, SEC)

[7] = target: T4, human BclxLΔTM (soluble domain of BclxL, transmembrane helix deleted) (human, UniProt Q07817-1 1-212); experiment: NMR titration; 100 µM 15N-labelled VDAC1-N peptide with a 5-fold excess of unlabelled BclxLΔTM; 20 mM NaPi pH 7.0, 50 mM NaCl, 303 K, 500 MHz; details: both partners purified
T4 construct: BclxL, human, soluble domain without the transmembrane helix, residues 1-212 (the NMR methods say 1-213); 2H,15N-labelled where it was the observed species in NMR; source: E. coli BL21 (DE3), purified (Ni-NTA, SEC)

[8] = target: human BclxLΔTM (soluble domain of BclxL, transmembrane helix deleted) (human) (UniProt Q07817); remark: listed apart in the source

Kd [3] [µM] | Molecule | Kd (BclxLΔLT) [µM] | also measured
400 | MAVPPTYADLGKAARDVFTKGYGF [wild-type VDAC1-N peptide of the alanine scanning set S13A] |  | 
500 | MAVPPTYADLAKSARDVFTKGYGF [wild-type VDAC1-N peptide of the alanine scanning set G11A] |  | 
400 | MAVPPTAADLGKSARDVFTKGYGF [wild-type VDAC1-N peptide of the alanine scanning set Y7A] |  | 
1000 | MAVPPTYAALGKSARDVFTKGYGF [wild-type VDAC1-N peptide of the alanine scanning set D9A] |  | 
200 | MAVPPTYADLGKSARDVFAKGYGF [wild-type VDAC1-N peptide of the alanine scanning set T19A] |  | 
300 | MAVPPTYADLGKSARDVATKGYGF [wild-type VDAC1-N peptide of the alanine scanning set F18A] |  | 
600 | MAVPPTYADLGKSARDAFTKGYGF [wild-type VDAC1-N peptide of the alanine scanning set V17A] |  | 
1200 | MAVPPTYADLGKSARAVFTKGYGF [wild-type VDAC1-N peptide of the alanine scanning set D16A] |  | 

Further lines, the molecule ahead of its results:

Molecule | Kd [3] [µM] | Kd (BclxLΔLT) [µM] | also measured
CC(C)C[C@H](NC(=O)[C@H](CC(=O)O)NC(=O)[C@H](C)NC(=O)[C@@H](N)Cc1ccc(O)cc1)C(=O)NCC(=O)N[C@@H](CCCCN)C(=O)N[C@@H](CO)C(=O)N[C@@H](C)C(=O)N[C@@H](CCCNC(=N)N)C(=O)N[C@@H](CC(=O)O)C(=O)N[C@H](C(=O)N[C@@H](C)C(=O)N[C@H](C(=O)N[C@@H](CCCCN)C(=O)NCC(=O)O)[C@@H](C)O)C(C)C [F18A] (H-YADLGKSARDVATKG-OH) |  | 367 | 
CC(C)C[C@H](NC(=O)[C@H](CC(=O)O)NC(=O)[C@H](C)NC(=O)[C@@H](N)Cc1ccc(O)cc1)C(=O)N[C@@H](C)C(=O)N[C@@H](CCCCN)C(=O)N[C@@H](CO)C(=O)N[C@@H](C)C(=O)N[C@@H](CCCNC(=N)N)C(=O)N[C@@H](CC(=O)O)C(=O)N[C@H](C(=O)N[C@@H](Cc1ccccc1)C(=O)N[C@H](C(=O)N[C@@H](CCCCN)C(=O)NCC(=O)O)[C@@H](C)O)C(C)C [G11A] (H-YADLAKSARDVFTKG-OH) |  | 609 | 
hydrocarbon-stapled VDAC1 peptide encompassing residues 7–21 (stVDAC1-N) (from UniProt P21796 7-21) |  |  | Kd [1]: 2 µM
wild-type VDAC1-N peptide of the alanine scanning set |  |  | rescue of cBid-activated Bak pore formation inhibited by BclxL (liposome permeabilization), 100 µM peptide [2]: 80%
CC(C)C[C@H](NC(=O)[C@H](CC(=O)O)NC(=O)[C@H](C)NC(=O)[C@@H](N)Cc1ccc(O)cc1)C(=O)NCC(=O)N[C@@H](CCCCN)C(=O)N[C@@H](CO)C(=O)N[C@@H](C)C(=O)N[C@@H](CCCNC(=N)N)C(=O)N[C@@H](CC(=O)O)C(=O)N[C@H](C(=O)N[C@@H](Cc1ccccc1)C(=O)N[C@H](C(=O)N[C@@H](CCCCN)C(=O)NCC(=O)O)[C@@H](C)O)C(C)C [VDAC1 wt] |  | 165 | 
CC(C)C[C@H](NC(=O)[C@H](CC(=O)O)NC(=O)[C@H](C)NC(=O)[C@@H](N)Cc1ccc(O)cc1)C(=O)NCC(=O)N[C@@H](CCCCN)C(=O)N[C@@H](CO)C(=O)N[C@@H](C)C(=O)N[C@@H](CCCNC(=N)N)C(=O)N[C@@H](C)C(=O)N[C@H](C(=O)N[C@@H](Cc1ccccc1)C(=O)N[C@H](C(=O)N[C@@H](CCCCN)C(=O)NCC(=O)O)[C@@H](C)O)C(C)C [D16A] (H-YADLGKSARAVFTKG-OH) |  | 1260 | 
CC(C)C[C@H](NC(=O)[C@H](CC(=O)O)NC(=O)[C@H](C)NC(=O)[C@@H](N)Cc1ccc(O)cc1)C(=O)N[C@@]1(C)CCCC=CCCC[C@@](C)(C(=O)N[C@@H](CC(=O)O)C(=O)N[C@H](C(=O)N[C@@H](Cc2ccccc2)C(=O)N[C@H](C(=O)N[C@@H](CCCCN)C(=O)NCC(=O)O)[C@@H](C)O)C(C)C)NC(=O)[C@H](C)NC(=O)[C@H](CO)NC(=O)[C@H](CCCCN)NC1=O [stVDAC1-N] (H-YADL[S5]KSA[S5]DVFTKG-OH; staple 5-9; N-terminus and C-terminus assumed) |  |  | effect on pore-forming activity of BclxL-inhibited Bak (in words) (Bak-BclxL complex): concentration-dependent rescue of the pore-forming activity of Bak
CC(C)C[C@H](NC(=O)[C@H](CC(=O)O)NC(=O)[C@H](C)NC(=O)[C@@H](N)Cc1ccc(O)cc1)C(=O)NCC(=O)N[C@@H](CCCCN)C(=O)N[C@@H](C)C(=O)N[C@@H](C)C(=O)N[C@@H](CCCNC(=N)N)C(=O)N[C@@H](CC(=O)O)C(=O)N[C@H](C(=O)N[C@@H](Cc1ccccc1)C(=O)N[C@H](C(=O)N[C@@H](CCCCN)C(=O)NCC(=O)O)[C@@H](C)O)C(C)C [S13A] (H-YADLGKAARDVFTKG-OH) |  | 408 | 
CC(C)[C@H](NC(=O)[C@H](CC(=O)O)NC(=O)[C@H](CCCNC(=N)N)NC(=O)[C@H](C)NC(=O)[C@H](CO)NC(=O)[C@H](CCCCN)NC(=O)CNC(=O)[C@H](C)NC(=O)[C@H](CC(=O)O)NC(=O)[C@H](C)NC(=O)[C@@H](N)Cc1ccc(O)cc1)C(=O)N[C@@H](Cc1ccccc1)C(=O)N[C@H](C(=O)N[C@@H](CCCCN)C(=O)NCC(=O)O)[C@@H](C)O [L10A] (H-YADAGKSARDVFTKG-OH) |  | 4030 | 
CC(C)C[C@H](NC(=O)[C@H](CC(=O)O)NC(=O)[C@H](C)NC(=O)[C@@H](N)Cc1ccc(O)cc1)C(=O)NCC(=O)N[C@@H](CCCCN)C(=O)N[C@@H](CO)C(=O)N[C@@H](C)C(=O)N[C@@H](CCCNC(=N)N)C(=O)N[C@@H](CC(=O)O)C(=O)N[C@@H](C)C(=O)N[C@@H](Cc1ccccc1)C(=O)N[C@H](C(=O)N[C@@H](CCCCN)C(=O)NCC(=O)O)[C@@H](C)O [V17A] (H-YADLGKSARDAFTKG-OH) |  | 713 | 
CC(C)C[C@H](NC(=O)[C@H](CC(=O)O)NC(=O)[C@H](C)NC(=O)[C@@H](N)Cc1ccc(O)cc1)C(=O)NCC(=O)N[C@@H](CCCCN)C(=O)N[C@@H](CO)C(=O)N[C@@H](C)C(=O)N[C@@H](CCCNC(=N)N)C(=O)N[C@@H](CC(=O)O)C(=O)N[C@H](C(=O)N[C@@H](Cc1ccccc1)C(=O)N[C@@H](C)C(=O)N[C@@H](CCCCN)C(=O)NCC(=O)O)C(C)C [T19A] (H-YADLGKSARDVFAKG-OH) |  | 201 | 
CC(C)C[C@H](NC(=O)[C@H](C)NC(=O)[C@H](C)NC(=O)[C@@H](N)Cc1ccc(O)cc1)C(=O)NCC(=O)N[C@@H](CCCCN)C(=O)N[C@@H](CO)C(=O)N[C@@H](C)C(=O)N[C@@H](CCCNC(=N)N)C(=O)N[C@@H](CC(=O)O)C(=O)N[C@H](C(=O)N[C@@H](Cc1ccccc1)C(=O)N[C@H](C(=O)N[C@@H](CCCCN)C(=O)NCC(=O)O)[C@@H](C)O)C(C)C [D9A] (H-YAALGKSARDVFTKG-OH) |  | 1070 | 
CC(C)C[C@H](NC(=O)[C@H](CC(=O)O)NC(=O)[C@H](C)NC(=O)[C@H](C)N)C(=O)NCC(=O)N[C@@H](CCCCN)C(=O)N[C@@H](CO)C(=O)N[C@@H](C)C(=O)N[C@@H](CCCNC(=N)N)C(=O)N[C@@H](CC(=O)O)C(=O)N[C@H](C(=O)N[C@@H](Cc1ccccc1)C(=O)N[C@H](C(=O)N[C@@H](CCCCN)C(=O)NCC(=O)O)[C@@H](C)O)C(C)C [Y7A] (H-AADLGKSARDVFTKG-OH) |  | 446 | 
MAVPPTYADAGKSARDVFTKGYGF [VDAC1-N L10A peptide] | 4000 |  | fold reduction in affinity against wild-type VDAC1-N [4]: 20 fold; Kd [5]: ~9000 µM
MAVPPTYADLGKSARDVFTKGYGFGL (peptide, UniProt P21796 1-26, looked up, VDAC1, human, N-terminal residues 1-26; Isotope-labelled (13C and 15N) for NMR; The same stretch 1-26 stands fused to the C-terminus of BclxLΔLT in m8; the row of the crystal structure uses m6 for that stretch; also called VDAC1-N (1–26); 15N-labeled VDAC1-N; source: E. coli, as His6-GB1-TEV fusion, Ni-NTA, TEV digestion, reverse Ni-NTA; not shown: His6, N-terminal, cleaved; GB1, N-terminal, …) [VDAC1-N peptide (residues 1–26)] |  |  | binding result [6]: binds; binding result [7]: binds
NLWAAQRYGRELRRMSDEFEGSFKGL [Bad-BH3 peptide (residues 140–165)] |  |  | recovery of cBid-activated Bak pore formation inhibited by BclxL (liposome permeabilization); Bad-BH3 1 to 100 nM [8]: 50 nM
